The record followed here is the DeepSol protein solubility set.

A short description of this data set: soluble on expression in E. coli; label from the status in PepcDB or PDB records.
For the sequence “MHHHHHHSSGVDLGTENLYFQSMATGQKLMRAVRVFEFGGPEVLKLRSDIAVPIPKDHQVLIKVHACGVNPVETYIRSGTYSRKPLLPYTPGSDVAGVIEAVGDNASAFKKGDRVFTSSTISGGYAEYALAADHTVYKLPEKLDFKQGAAIGIPYFTAYRALIHSACVKAGESVLVHGASGGVGLAACQIARAYGLKILGTAGTEEGQKIVLQNGAHEVFNHREVNYIDKIKKYVGEKGIDIIIEMLANVNLSKDLSLLSHGGRVIVVGSRGTIEINPRDTMAKESSIIGVTLFSSTKEEFQQYAAALQAGMEIGWLKPVIGSQYPLEKVAEAHENIIHGSGATGKMILLL”, the “soluble on expression in E. coli” value is listed as “soluble”. Take “TKDFNWNSTFNIAYNSSDVKYLGIDGTGEKIKRLTLDGANSRVGSVSVQNILGHPYGELVGYEYKRTSDGQVIFENGLPVHSDEVQVLGNGVYKVTGGWRNEFTYKNITLSFLIDFKAGAKMFSGTNLSLYSNGLHKNTLQGRGADGKGTMVGNGVMSDGKGGYVKNTVAVSAQDYWQAITSQNIAEEFVYNASFIKLRELSVGYTLPQAWLNKQTLIKGVTLSLVGRNLWTILKHTDNIDPESAYNNGNAQGLELNGYPATRNVGFNVNVKF”: the “soluble on expression in E. coli” value is recorded as “not soluble”. In the case of “MGSDKIHHHHHHMEIFDYVILGAGLGGLSAAACLTRQGYRVVVLEQHYLPGGCCHTFDYGEYHFCADVHYISQCGSGQTITQFLDYIHQNVPFNSLDSDCIDRVITPEADFKIPLGWENLRSRLLSTFPEEAGAINHYCNEIQQLHQEIRNLVQEVRWYDQKLSDWLKLPKYLNLFWKRNWTLQDLYNHVGLSPKLQAVLAGQSGDYALPPQEIALLTHTSLVWDYSEGAYYPKHHFKHLVDTIADVITAGGGVIKYSTPVSHIQVSNHSVHSVLADGNSYRASKAYISDLDPKLTVELMHDITALSQKEYKRLTNYQYSASAFNIYLGLDSRFDPQRYGIGNWNVWYYPTGDLNREYQQQLEGDFSQPWIFLSCPTMKSSEPGMGPEGHHVLEIATVCSYEPFEHLYKSNPKAYKAKKREFYQQIMTSVRDLIPDVDKYARMKVYGTPTTSEFYLGQPQGNIYGAKLVPKQVGLNRLGYMTELPNLFLVGASAGYPSVPGVIGNGMQVVELLTGQSVWHKAAERPQSLVAIG”, the “soluble on expression in E. coli” value is recorded as “not soluble”. The value for “MDTQQIDVMVADASHEVYVDTILETIRNAAAVRGTGIAERTHEYVATKMKEGKAIIALCGDTFAGFTYIESWGNKQYVATSGLIVHPDFRGLGLAKRIKQASFQLARLRWPKAKIFSLTSGAAVMKMNTELGYVPVTFNELTDDEAFWKGCEGCTNHDILAAKNRKFCICTAMLYDPTDPRNIKKEQERNNI” was “not soluble”; that for “MHQVISATTNPAKIQAILQAFEEIFGEGSCHITPVAVESGVPEQPFGSEETRAGARNRVDNARRLHPQADFWVAIEAGIDDDATFSWVVIDNGVQRGEARSATLPLPAVILDRVRQGEALGPVMSQYTGIDEIGRKEGAIGVFTAGKLTRSSVYYQAVILALSPFHNAVYR” was “soluble”; that for “GPGSMAKKEVVWLGTPTEADGSELSSPFTSRIGGSAVLFREAPTYSIFNCPKCRSSRWVSLLTQIYAPLDVYDRIVYVLICSSCSEGKGSFCFAVRSQNFNPSYVQSSPAPVVGGGEDEGITFVEDGDWGDDDPKYVDEGPNEVCITNLTCTTMADECKVGSPTQSTDVSSVLVPHGTKVPVEGFCYPCFVLNIFEEPPKPKLCYGTVPDQLLKAQQTYGEDAVETTVVEDEDEPLAEKLLRKYVDRIGRVPSQCVRWGPGQKPLRSSPAPIVIPRCPRCSNERRYELQLTSPIIYFLTKGKEEKDHSLHFGSVLVYTCGGNCNVQPYSLEHCVVEDEV” was “not soluble”. The value for “MGSDKIHHHHHHLKSAEGSTWNCCPIDWRAFQSNCYFPLTDNKTWAESERNCSGMGAHLMTISTEAEQNFIIQFLDRRLSYFLGLRDENAKGQWRWVDQTPFNPRRVFWHKNEPDNSQGENCVVLVYNQDKWAWNDVPCNFEASRICKIPGTTLN” was “not soluble”. The value for “MGSDKIHHHHHHMKICLVSSMHPPHDKRVFDKEAVTLSSNGYKVLHLCPGTASDSGVFNDVEIVPYCRPSGIKGRLLQIFQLYRMANKINADVYHCNEVDSWFVGVLLKILRKKLCVFDVHEHYPSTFAESRFPKWIQPAVSSLVKLIFRLFLPFTDRLVLAKKSVSDDFPNSDSKKVLVRNFTPLSGINFTGVREVVPKGSDVTLIHLGLFGKIRGWPQTLEALKTMKQKNVRLVVIGDFNDGSRADFDSVVSAYGLNDRVVVYDWMPFEDAFKHLMQAHIGLVVFQPGILNHVYAMPHKMFDYMAAGMAVICPEFAMEVAPFVKEAKCGLLVDTANPADLAKKLDELVSSPDLIHEMGVRAQKAVQQHYNWEAEAKHLIQMYKELEELQ” was “not soluble”; that for “MGSDKIHHHHHHMNYPSLVWHLKRTELFADFELAELEQVAATTPYRSYQPGEVIYRMDDPADALYFVRSGLVKISKLFPNGKEAILGVVGQHDTFGELLLQPEERRPTQAEALERTTLIVLPRQELQKLLSTKPDLAMKLIRLMAARLFEAQAWTATVSAYSAPERVASLLYRLAREFGRPHSQGVELNLKLNQEDIARMVGATRETVSHSLSRLKKGGAIVRARSPIIVQMDALKAFIDQEH” was “not soluble”. For the sequence “SLQWECWPSLPCWRCFAASGRITLSIKRFTQNSRRHDMKITKINAIPLSYRLPEGKTVTMGVGSTIKRDAIIIRVETSEGITGYGEAHPGRSPGAITSLIHNTIAPMLIGMKATDCVGAWQRVHRMQLSSHGLGAGAALAISGIDMALWDIRGKAANMPLYELLGGSKRRIPAYAGGIALGYQPKESLAEEAQEYIARGYKALKLRIGDAARVDIERVRHVRKVLGDEVDILTDANTAYTMADARRVLPVLAEIQAGWLEEPFACNDFASYREVAKITPLVPIAAGENHYTRFEFGQMLDAGAVQVWQPDLSKCGGITEGIRIAAMASAYRIPINAHSSATGLNHAATIHFLAATENAGYFEACVSKFNPFRDMFGTSFEIGADGCVEPPDAPGLGIEVDESIFEKYPAVDGPGYVVKF”, the “soluble on expression in E. coli” value is given as “not soluble”. Turning to “MSLNRPAPVEISYENMRFLITHNPTNATLNKFTEELKKYGVTTLVRVCDATYDKAPVEKEGIHVLDWPFDDGAPPPNQIVDDWLNLLKTKFREEPGCCVAVHCVAGLGRAPVLVALALIECGMKYEDAVQFIRQKRRGAFNSKQLLYLEKYRPKMRLRFRDTNGEGHHHHHH”, the “soluble on expression in E. coli” value is “soluble”. Turning to “MGAIKVEIKSGALLISPSEFKERYLPTLQDMPVLAFVRNIEAPKSWYSYLISNIEDQKSSIFPTNLPRILEISRRYFSSVKNGIVVIDALEYLTIYNGFEAIAKFLATLRDFAILDNGTVIIITEKKAWKDREWALLTSLLGKLEHHHHHH”, the “soluble on expression in E. coli” value is recorded as “not soluble”. The value for “MIPEPDILVVGGGLGGVAAALAACRAGRSVVLTEETDWIGGQLTSQAVPPDEHPWVEQFGTTATYRRLREGIRQYYRQWYPLRAEAAALTDLNPGAGRVSKLCHEPRVALAVLEGMLAPHRAAGRLTVLTEHRPVAAETDNDVVRAVTLEDLRDGTRRTVPARYVLDATETGELLHLAGVEHVNGAESRAEFDEPHAPDRAQPGNQQGITVCFALSHHEGEDHTIDRPADYDFWRDYKPDFWPGPLLGFEAPDPRTLEPVPRTFEPNPDLDPLAVSADQSADAGDKELWGFRRILARKLHTDGAFDSDITLVNWPLNDYWLKPYIGQEAEALREARQLSLSVLYWLQTEAPRTDGGTGFPGLRPRPDVTGTADGLAKAAYVRESRRIKAVTTVTEHDVSIDLLGPYGRTRHRDSVGVGNYRIDLHPSTGGDGYVDIGSVPFEIPLGALVPRRVRNLLPAGKNLGTTHITNGCYRLHPVEWNVGEVAGALAAHCLAEDVEPHQVQAEDKRFEEFARVLDHDGVQRHWPDVRGYLEHHHHHH” was “not soluble”; that for “MVQLDRFEILFNNPEQAYFAGQEISGKVIIENKEPKKVNEILLELKGRARTYWTKHSGKSRKHCSHSEPYFLEQFNPGYTHKFTVVKDGKEKERILPAGIHQVPFSYTLPKSLPSSFEGEFGHIRYTCKAICERPWDFDIVSRKAFTVVGIEDINSDPKLNEPATCVESNHAVTFCCRSAGSVTGEIRISKCGYTPGEKIDVSFKVINLSSKTRTTALRFVQQTTYKAKTFAGHEHIKNVVRVISKIDKGEVPGGSTTEWQEESITIPSLPPKLGKCKILSVTYSVELEVEQTLTVPCPIVIGSIPQLSQLLIHSKQSVQSAGNGSLPKSSIKDSPPKWDSESCVQVTITDESGQLVEELGNEMEALLSARKRVRMPSSILSELYPTMPSPYYKESFFGASDISEEKEQAQFGEASFAPKYPFYTD” was “not soluble”; that for “MVDQATLDKLEAGFKKLQEASDCKSLLKKHLTKDVFDSIKNKKTGMGATLLDVIQSGVENLDSGVGIYAPDAESYRTFGPLFDPIIDDYHGGFKLTDKHPPKQWGDINTLVGLDPAGQFIISTRVRCGRSLQGYPFNPCLTAEQYKEMEEKVSSTLSSMEDELKGTYYPLTGMSKATQQQLIDDHFLFKEGDRFLQTANACRYWPTGRGIFHNDAKTFLVWVNEEDHLRIISMQKGGDLKTVYKRLVTAVDNIESKLPFSHDDRFGFLTFCPTNLGTTMRASVHIQLPKLAKDRKVLEDIASKFNLQVRGTRGEHTESEGGVYDISNKRRLGLTEYQAVREMQDGILEMIKMEKAAA” was “soluble”. The value for “MHCALLYSGGKDSTLAALLLDPFYDVTLVSGSFGVRDTDPAQESATAVGFDHVTVDLDPDVAHDAVKQMFDDGYPRNGIQRVHEHAVETVARADWVADADGLGTLDAVADGTRRDDRVPTVDRPLAQSIEDRFDVDYLAPLAGIGRGAIDAMAADRLVVESGPSAEIPKADYEVELRALLRKRYGEGAVADVFPEHTQSRVQGLR” was “not soluble”; that for “MRLQTVKHFLEPVLEPLIRKVVKEEVELALGKHLAGIKWICEKETHPLESRNLQLKFLNNLSLPVFTSARIEGDEGQAIRVGLIDPSTGQIFSSGPASSAKLEVFVVEGDFNSVSDWTDEDIRNNIVREREGKKPLLNGNVFAVLNDGIGVMDEISFTDNSSWTRSRKFRLGVRIVDQFDYVKIREAITESFVVRDHRGELYKKHHPPSLFDEVWRLEKIGKDGAFHRRLNLSNINTVKDFLTHFHLNSSKLRQVLGTGMSSKMWEITLDHARSCVLDSSVHVYQAPGFQKKTAVVFNVVAQVLGLLVDFQYIPAEKLSEIEKALILSVYIFDLAQAEVMVIDALSHLNEVISYDDEVSMMRNVLNAPASQGSVAGIDYSGLSLTSLDGYGFVSSLHNTAECSGKHSDDVDMEVTPHGLYEDYDNLWNCSHILGLEEPQSELQSALDDFMSQKNASVGGKAHSKRWTKLFSVSRWLSVFKYVKLGKI” was “soluble”; that for “SVRTACKSRAVSSGKQTGKWQSWSDAGVLTVFECEGLKLILNTWTPIPFSPFPVHHLFTPMLIGRLCGTRIETLALIHGGISLPATALRSPNSGVKLPLLVSPLFPMETTPSALRLLSSHKAESGSPTLFTLVHLLPLLLQ” was “soluble”. With “SATTVTLEKCGHNKGYKGLDNCRFCPGSQCCVEDGPESIDSIIDMDAVCKRVTTLGLDVSVTISQDAGRYLCDFTYYTSLYQSHGRSAFVHVPPLGKPYNADQLGRALRAIIEEMLDLLEQSEGKINYCHKH”, the “soluble on expression in E. coli” value is “soluble”. The value for “MGSDKIHHHHHHMTQLIMRPRPGKIKLGLKASQAPAQLMDRLQYRPEVFEFFTSATDFEPEAFQTLKTAVQFVKTTVTEQIVIHHPMSYQGVHLDQLLDPHREAAAYQFLQTSTAQLLALATELDVKVLVHGGYGSDSGRLIDEYESLQVARDVVFERLDNLVRQASGHVVIENGVTASFMYGDPQLDERIIQHHYPLVCDLSHVFIALHGDMELTMLALKRLAPLIQHYHLVDSMGTRHDSLPLGQGLIDWQRVLPVLNPHATMIYEVPDETDATCANMLSSYHYLRALELRSIEGGQAND” was “not soluble”. The value for “TVGILWVNWDSRVRYANRAVESMLGYAPGQVVERPLIDFEPDLHMDRWLNLWKNARSSEDSAQVFETHCLRADGSLLPADVSLSFLRFR” was “not soluble”.
